Laboratory results taken from PMC6238537.

Columns and labels:
Assay in all cases: solid-phase binding assay
[1] = biological target: recombinant integrin αvβ3, P06756;P05106; settings: read off a plot
[2] = biological target: recombinant integrin αvβ5, P06756;P18084; settings: read off a plot
[3] = biological target: recombinant integrin α9β1, Q13797;P05556; settings: parent: est. 0.11; read off a plot
recombinant integrin α9β1, Q13797;P05556, sequence (chain, as listed by the source, chain 1 of 2): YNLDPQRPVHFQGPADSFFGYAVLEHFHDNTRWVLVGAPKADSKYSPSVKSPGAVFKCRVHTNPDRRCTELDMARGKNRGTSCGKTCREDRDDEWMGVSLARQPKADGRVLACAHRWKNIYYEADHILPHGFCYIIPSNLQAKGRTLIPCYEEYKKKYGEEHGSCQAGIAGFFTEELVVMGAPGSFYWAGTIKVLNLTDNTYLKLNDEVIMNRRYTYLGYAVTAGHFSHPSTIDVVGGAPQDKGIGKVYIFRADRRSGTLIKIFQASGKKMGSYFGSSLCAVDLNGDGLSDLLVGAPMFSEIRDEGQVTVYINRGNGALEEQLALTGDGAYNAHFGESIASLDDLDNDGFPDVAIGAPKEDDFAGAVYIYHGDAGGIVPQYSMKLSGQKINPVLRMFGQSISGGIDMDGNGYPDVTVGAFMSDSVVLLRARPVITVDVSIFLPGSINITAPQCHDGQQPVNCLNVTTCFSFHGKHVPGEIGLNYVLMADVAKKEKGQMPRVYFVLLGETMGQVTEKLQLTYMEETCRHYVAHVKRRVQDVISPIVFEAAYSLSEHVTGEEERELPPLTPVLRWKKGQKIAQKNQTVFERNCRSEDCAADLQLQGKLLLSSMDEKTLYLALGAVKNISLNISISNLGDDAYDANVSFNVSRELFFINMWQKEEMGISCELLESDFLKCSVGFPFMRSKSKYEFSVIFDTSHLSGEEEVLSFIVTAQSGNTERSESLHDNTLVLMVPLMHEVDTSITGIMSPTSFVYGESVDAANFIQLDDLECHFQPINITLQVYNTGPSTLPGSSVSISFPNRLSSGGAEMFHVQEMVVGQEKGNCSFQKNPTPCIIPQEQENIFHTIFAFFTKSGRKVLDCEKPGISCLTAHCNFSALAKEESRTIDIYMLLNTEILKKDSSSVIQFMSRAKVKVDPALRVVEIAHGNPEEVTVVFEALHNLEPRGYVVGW
recombinant integrin α9β1, Q13797;P05556, sequence (chain, as listed by the source, chain 2 of 2): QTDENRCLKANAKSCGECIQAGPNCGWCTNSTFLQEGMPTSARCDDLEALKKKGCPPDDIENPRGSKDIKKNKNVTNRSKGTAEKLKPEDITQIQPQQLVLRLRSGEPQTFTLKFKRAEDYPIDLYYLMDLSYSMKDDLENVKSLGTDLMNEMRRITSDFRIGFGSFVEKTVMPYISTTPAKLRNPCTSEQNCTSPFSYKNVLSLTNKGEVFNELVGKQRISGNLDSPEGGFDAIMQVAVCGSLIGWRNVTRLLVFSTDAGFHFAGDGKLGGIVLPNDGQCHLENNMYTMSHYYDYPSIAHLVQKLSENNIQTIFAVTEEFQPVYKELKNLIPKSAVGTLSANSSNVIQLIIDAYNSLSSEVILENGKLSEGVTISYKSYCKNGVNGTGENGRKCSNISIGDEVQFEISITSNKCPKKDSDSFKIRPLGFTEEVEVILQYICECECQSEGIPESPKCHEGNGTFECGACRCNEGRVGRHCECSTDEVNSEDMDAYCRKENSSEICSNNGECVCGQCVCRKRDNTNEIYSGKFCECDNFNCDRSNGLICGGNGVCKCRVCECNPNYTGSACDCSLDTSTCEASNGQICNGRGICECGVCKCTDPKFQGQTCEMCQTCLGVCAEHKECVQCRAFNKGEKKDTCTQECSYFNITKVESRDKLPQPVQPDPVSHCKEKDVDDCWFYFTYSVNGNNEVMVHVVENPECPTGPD

response (absorbance at 490 nm) ([1]; parent: est. 0.15)	response (absorbance at 490 nm) ([2]; parent: est. 0.26)	response (absorbance at 490 nm) [3]	response (absorbance at 490 nm) ([1]; parent: est. 0.53)	response (absorbance at 490 nm) ([2]; parent: est. 1.4)	Substance
0.17	0.27				recombinant human laminin-111 (from UniProt P25391;P07942;P11047) γ1:EQ (γ1C-Glu to Gln)
		0.13	0.62	1.6	recombinant human laminin-511, O15230;P07942;P11047 γ1:EQ (γ1C-Glu to Gln)
